Laboratory results: patent US20140079722A1, “EXTRACELLULAR TARGETED DRUG CONJUGATES” (CENTROSE, LLC, priority 2011, published 2014)

How the values were obtained:
[1] = tested on: primary human umbilical artery endothelial cells (HUAEC); assay: In vitro normal cell cytotoxicity; type: cell-based; details: HUAEC, 72 hrs; conjugates as antibody concentration; read-out: EC50
Experimental: (§1) In vitro normal cell cytotoxicity. The in vitro cytotoxic activity of M53-PEG24-CEN09-106, PEG24-CEN09-106, M53-PEG24-CEN-319, PEG24-CEN-319, proscillaridin and digitoxin against dysadherin positive primary normal human cells and a dysadherin positive human non-small cell lung carcinoma (NSCLC) cell line were tested and compared. The cells used were primary human renal epithelial cells (HREpC), primary human umbilical vein endothelial cells (HUVEC), primary human umbilical artery endothelial cells (HUAEC), and the A549 NSCLC cells. The primary cells were obtained from PromoCell GmbH, Heidelberg, Germany, and the NSCLC cell line A549 was obtained from ATCC. Primary renal epithelial cells were grown in Renal Epithelial Cell Growth Medium 2 (PromoCell GmbH, Heidelberg, Germany). Primary endothelial cells were grown in Endothelial Cell Growth Medium 2 (PromoCell GmbH, Heidelberg, Germany). The NSCLC cell line was grown in RPMI-1640 (HyClone, Thermo Scientific) supplemented with 10% fetal bovine serum. HREpC, HUVEC, HUAEC, and A549 cells were plated in 384 well plates at 1250, 1875, 2500, and 1250 cells/well (respectively) and allowed to incubate for 24 hrs at 37° C., 5% CO2, and 100% humidity. Various concentrations of conjugates M53-PEG24-CEN09-106 and […] and PEG24-CEN09-106 and […] were added to the wells in a total volume of 5 uL of media and the plates were incubated for an additional 72 hrs. After 72 hrs of exposure to agent, cell viability was evaluated using the Cell Titer-Glo Luminescent Cell Viability Assay (Promega, Madison, Wis.) according to the manufacturer's instructions. Luminescence measurements were performed using a Wallac Victor^2 Model 1420-041 assay plate reader (Perkin Elmer, Gaithersburg, Md.). EC50 values for each test agent were determined using GraphPad Prism 5 software.

[2] = tested on: primary human umbilical vein endothelial cells (HUVEC); assay: In vitro normal cell cytotoxicity; type: cell-based; details: 72 hrs, conjugates as antibody concentration, read-out: EC50
Experimental: as §1

H460 xenograft = H460 xenograft model; type: in vivo, Hsd:Athymic Nude-Foxn1nu mice
Experimental: Briefly, to establish a large-cell lung cancer disease model, 1×10^6 H-460 cells in 100 μL RPMI1640+30% Matrigel HC (BD Biosciences, San Jose, Calif.) were implanted into the left flank of Hsd:Athymic Nude-Foxn1^nu mice (Harlan, Indianapolis, Ind.). Therapy was initiated when the tumor size in groups of 5 animals averaged ˜200 mm^3. Treatment using vehicle control, M53-PEG24-CEN09-106 at 0.1 and 1 mg/kg, and 10 mg/kg control M53-PEG24-CEN09-106 (as described above) consisted of multiple i.v. injections using the schedule of one injection every 7 days for 2 injections (q7d×2). Paclitaxel served as a positive control treatment group and was dosed i.v. at 15 mg/kg using the schedule of one injection every 2 days for 5 injections (q2d×5). Using this schedule, tumor volumes were measured for each group using calibrated vernier calipers and plotted against day of tumor implant for 24 days post-implant and 12 days post-initial dose, graphed and shown in FIG. 5.

A549 xenografts = assay: Second A549 xenograft study (tumor fragments); type: in vivo, female HRLN nu/nu mice
Experimental: Briefly, to establish a non-small-cell lung cancer disease model, subcutaneous A549 xenografts were initiated in female HRLN nu/nu mice by implanting 8 mm^3 A549 tumor fragments subcutaneously into the left flank. Tumor growth was monitored, and mice bearing tumors of 60-180 mm^3 were selected for the study. Tumor-bearing mice (n=7 mice/group) with a group average tumor volume of approximately 110 mm^3 were treated i.p. with 5 mgs/kg M53-PEG24-CEN09-106 at q3d×4, 20 mg/kg scillarenin-4-amino-deoxy-L-xylopryanoside (an intermediate in the construction of M53-PEG24-CEN09-106 and known cytotoxin) at q2dx5, and 15 mg/kg paclitaxel at q1d×5. Tumor volumes were measured for each group using calibrated vernier calipers plotted against day of first dose for 100 days to produce the graph shown in FIG. 4.
Paclitaxel at its optimum dosing produced 80% growth inhibition of the tumor when compared to vehicle.

[3] = Single intraperitoneal dose tolerability; type: in vivo, male BALB/c mice; details: drug loading of 2, 500 mg/kg intraperitoneal
Experimental: In a separate experiment, male BALB/c mice (BALB/cAnNHsd, Harlan Laboratories) were administered a single and immediate dose of 500 mg/kg of M53-PEG24-CEN09-106 with a drug loading of 2 drugs per antibody by intraperitoneal injection. Animal weights were recorded over a 22 day period and visual observations were made over a period of 146 days and compared to mice receiving a vehicle control. […] Mice regained normal control body weight by day 15.

H520 = assay: In vitro cancer cell cytotoxicity (CellTiter-Glo cell viability); type: cell-based, human
Source text: EDCs were constructed using linker-ready agents PEG24-CEN09-106, PEG24-CEN09-107, PEG24-CEN10-110 and PEG24-CEN-319. As described in Example 1, linker-ready agent PEG24-CEN-319 contain digitoxigenin while the others contain scillarenin. Linker-ready agents PEG24-CEN09-106, PEG24-CEN09-107, PEG24-CEN10-110 all use different linkers. Specifically, PEG24-CEN09-106 and PEG24-CEN09-107 have different sugars in the linker, while PEG24-CEN10-110 contains a longer linker that includes a primary amine.
All of the cell lines below, except H520, express the Na,K-ATPase with the dysadherin subunit and so present the target of the antibody and drug in close proximity.

B1: M53-PEG24-CEN09-106: Class 1 EDC: antibody M53 conjugated to linker-ready agent PEG24-CEN09-106 (scillarenin, 4-amino-xyloside, PEG24) (conjugate)
heavy: EVQLVESGGGLVQPKGTLKLSCAASGFSFNTHAMNWVRQAPGKSLEWVARTMSKSNNYATYYADSVKDRFIIRADDSQSMLYLQMNNLKTEDTAMYYCVRDDPKRGMDYWGQGTSVTVSSAKTTPPSVYPLAPGSAAQTNSMVTLGCLVKGYFPEPVTVTWNSGSLSSGVHTFPAVLQSDLYTLSSSVTVPSSTWPSETVTCNVAHPASSTKVDKKIE
light: GIVMSQSPSSLAVSVGEKVTMSCKPSQSLLYSRNQKIYLAWYQQKPGQSPKLLIYWASTRESGVPDRFTGSGSGTDFTLIISSVRAEDLAVYYCQQYYNYPLTFGAGTKLELKRADAAPTVSIFPPSSEQLTSGGASVVCFLNNFYPKDINVKWKIDGSERQNGVLNSWTDQDSKDSTYSMSSTLTLTKDEYERHNSYTCEATHKTSTSPIVKSFNR
Question: What does the source list for B1?
Answer: EC50 [1]: 29 nM; EC50 [2]: 30 nM; weight loss (H460 xenograft; EDC 0.1 mg/kg q7dx2, paclitaxel 15 mg/kg q2dx5, H460 xenograft): no weight loss; growth inhibition of the tumor compared to vehicle (H460 xenograft; drug loading of 8, 0.1 mg/kg i.v. q7dx2, H460 xenograft): 38%; growth inhibition of the tumor compared to vehicle (H460 xenograft; drug loading of 8, 1 mg/kg i.v. q7dx2, H460 xenograft): 73%; growth inhibition of the tumor compared to vehicle (A549 xenografts; 100 days post-initial dose, EDC (loading 3) 5 mg/kg i.p. q3dx4, scillarenin aminoxyloside 20 mg/kg q2dx5, paclitaxel 15 mg/kg q1dx5): 72%; weight loss (A549 xenografts; same dosing as efficacy arms, second A549 xenograft study): no weight loss; visual observations ([3]; 146 days): no overt signs of toxicity; average loss in body weight ([3]; first 6 days post injection): 30%; EC50 (H520; H520 cells (no FXYD5 surface expression), 3 days incubation): > 50 nM; activity on H520 cells (H520; H520 cells do not express dysadherin (FXYD5)): not active
